Read-outs that look alike come from different tables or passages of the source.
Columns and labels:
[1] = biological target: hemagglutinin (HA) of influenza B/California/12/2015 B-Yam (influenza B virus B/California/12/2015); assay: cell-based or functional assay
[2] = biological target: hemagglutinin (HA) of influenza B/Maryland/15/2016 B-Vic (influenza B virus B/Maryland/15/2016); assay: cell-based or functional assay
[3] = biological target: hemagglutinin (HA) of influenza B/Colorado/06/2017 B-Vic (influenza B virus B/Colorado/06/2017); assay: cell-based or functional assay
[4] = biological target: hemagglutinin (HA) of influenza A/Singapore/INFIMH-16-0019/2016 H3N2 (influenza A virus A/Singapore/INFIMH-16-0019/2016 (H3N2)); assay: cell-based or functional assay
[5] = biological target: hemagglutinin (HA) of influenza A/Kansas/14/2017 H3N2 (influenza A virus A/Kansas/14/2017 (H3N2)); assay: cell-based or functional assay
[6] = biological target: hemagglutinin (HA) of influenza B/Phuket/3073/2013 B-Yam (influenza B virus B/Phuket/3073/2013); assay: cell-based or functional assay
[7] = biological target: hemagglutinin (HA) of influenza B/Washington/02/2019 B-Vic (influenza B virus B/Washington/02/2019); assay: cell-based or functional assay
[8] = biological target: hemagglutinin (HA) of influenza A/Cambodia/e0826360/2020 H3N2 (influenza A virus A/Cambodia/e0826360/2020 (H3N2)); assay: cell-based or functional assay
[9] = biological target: hemagglutinin (HA) of influenza A/Darwin/6/2021 (influenza A virus A/Darwin/6/2021); assay: cell-based or functional assay
[10] = biological target: hemagglutinin (HA) of influenza A/Hawaii/70/2019 (influenza A virus A/Hawaii/70/2019); assay: cell-based or functional assay
[11] = biological target: hemagglutinin (HA) of influenza B/Austria/1359417/2021 (influenza B virus B/Austria/1359417/2021); assay: cell-based or functional assay
[12] = biological target: hemagglutinin (HA) of influenza B/Colorado/06/2017 B-Vic (influenza B virus B/Colorado/06/2017); assay: cell-based or functional assay; remark: listed apart in the source
[13] = biological target: hemagglutinin (HA) of influenza A/Brisbane/02/2018 H1N1 (influenza A virus A/Brisbane/02/2018 (H1N1)); assay: cell-based or functional assay
[14] = biological target: hemagglutinin (HA) of influenza A/Singapore/INFIMH-16-0019/2016 H3N2 (influenza A virus A/Singapore/INFIMH-16-0019/2016 (H3N2)); assay: cell-based or functional assay; remark: listed apart in the source
[15] = biological target: hemagglutinin (HA) of influenza A/Tasmania/503/2020 (H3N2) (influenza A virus A/Tasmania/503/2020 (H3N2)); assay: cell-based or functional assay
[16] = biological target: hemagglutinin (HA) of influenza A/Kansas/14/2017 H3N2 (influenza A virus A/Kansas/14/2017 (H3N2)); assay: cell-based or functional assay; remark: listed apart in the source
[17] = biological target: hemagglutinin (HA) of influenza A/Sydney/5/2021 (influenza A virus A/Sydney/5/2021); assay: cell-based or functional assay
[18] = biological target: hemagglutinin (HA) of influenza B/Phuket/3073/2013 B-Yam (influenza B virus B/Phuket/3073/2013); assay: cell-based or functional assay; remark: listed apart in the source
[19] = biological target: hemagglutinin (HA) of influenza B/Washington/02/2019 B-Vic (influenza B virus B/Washington/02/2019); assay: cell-based or functional assay; remark: listed apart in the source
[20] = biological target: hemagglutinin (HA) of influenza A/Wisconsin/588/2019 (influenza A virus A/Wisconsin/588/2019); assay: cell-based or functional assay
[21] = biological target: hemagglutinin (HA) of influenza A/Brisbane/02/2018 H1N1 (influenza A virus A/Brisbane/02/2018 (H1N1)); assay: cell-based or functional assay; remark: listed apart in the source
[22] = biological target: hemagglutinin (HA) of influenza A/Victoria/2570/2019 H1N1 (influenza A virus A/Victoria/2570/2019 (H1N1)); assay: cell-based or functional assay
[23] = biological target: hemagglutinin (HA) of influenza A/Hong Kong/45/2019 H3N2 (influenza A virus A/Hong Kong/45/2019 (H3N2)); assay: cell-based or functional assay
[24] = test system: influenza A/Anhui/1/2013 (H7N9) virus; set-up: species or system BALB/c mice; conditions: mouse, in vivo
[25] = biological target: hemagglutinin (HA) of influenza A/Switzerland/9715293/2013 H3N2 (influenza A virus A/Switzerland/9715293/2013 (H3N2)); assay: cell-based or functional assay
[26] = biological target: hemagglutinin (HA) of influenza B/Brisbane/60/2008 B-Vic (influenza B virus B/Brisbane/60/2008); assay: cell-based or functional assay
[27] = biological target: hemagglutinin (HA) of influenza A/Hong Kong/4801/2014 H3N2 (influenza A virus A/Hong Kong/4801/2014 (H3N2)); assay: cell-based or functional assay
[28] = biological target: hemagglutinin (HA) of influenza A/Brisbane/02/2018 H1N1 (influenza A virus A/Brisbane/02/2018 (H1N1)); assay: cell-based or functional assay; remark: listed apart in the source
[29] = biological target: hemagglutinin (HA) of influenza A/Victoria/2570/2019 H1N1 (influenza A virus A/Victoria/2570/2019 (H1N1)); assay: cell-based or functional assay; remark: listed apart in the source
[30] = biological target: hemagglutinin (HA) of influenza A/Hong Kong/45/2019 H3N2 (influenza A virus A/Hong Kong/45/2019 (H3N2)); assay: cell-based or functional assay; remark: listed apart in the source
[31] = biological target: hemagglutinin (HA) of influenza A/Cambodia/e0826360/2020 H3N2 (influenza A virus A/Cambodia/e0826360/2020 (H3N2)); assay: cell-based or functional assay; remark: listed apart in the source

Row | Compound | HAI titer [1] [titer] | HAI titer [2] [titer] | HAI titer [3] [titer] | HAI titer [4] [titer] | HAI titer [5] [titer] | HAI titer [6] [titer] | HAI titer [7] [titer] | HAI titer [8] [titer] | HAI titer [9] [titer] | HAI titer [10] [titer] | HAI titer [11] [titer] | HAI titer [12] [titer] | HAI titer [13] [titer] | HAI titer [14] [titer] | HAI titer [15] [titer] | HAI titer [16] [titer] | HAI titer [17] [titer] | HAI titer [18] [titer] | HAI titer [19] [titer] | HAI titer [20] [titer] | also measured
1 | SAB-176 Lot 1 (PD1901102QR) (antibody) | 128 | 256 | 256 | 512 | 64 | 128 | 64 | 128 | 113 | 1280 | 28 | 160 | 1280 | 320 | 40 | 40 | 320 | 160 | 160 | 320 | HAI titer ratio of SAB-176 to hIVIG [1]: 16 to 32 X; HAI titer of drug product [2]: 3840 titer; HAI titer ratio of SAB-176 to hIVIG [2]: 16 to 32 X; HAI titer ratio of SAB-176 to hIVIG [3]: 16 to 32 X; HAI titer of drug product [4]: 7680 titer; HAI titer ratio of SAB-176 to hIVIG [4]: 8 to 32 X; HAI titer ratio of SAB-176 to hIVIG [5]: 2 to 16 X; HAI titer of drug product [6]: 1920 titer; HAI titer ratio of SAB-176 to hIVIG [6]: 16 X; HAI titer ratio of SAB-176 to hIVIG [7]: 8 to 16 X; HAI titer ratio of SAB-176 to hIVIG [8]: 4 to 8 X; HAI titer [21]: 512 titer; HAI titer ratio of SAB-176 to hIVIG [21]: 16 to 32 X; HAI titer [22]: 256 titer; HAI titer ratio of SAB-176 to hIVIG [22]: 16 to 32 X; HAI titer [23]: 64 titer; HAI titer ratio of SAB-176 to hIVIG [23]: 4 to 8 X
2 | CCOC(=O)C1=C[C@@H](OC(CC)CC)[C@H](NC(C)=O)[C@@H](N)C1 [oseltamivir] |  |  |  |  |  |  |  |  |  |  |  |  |  |  |  |  |  |  |  |  | protection from challenge (body weight) [24]: did show protection from challenge
3 | SAB-176 (antibody) |  | 512 | 512 | 512 |  | 512 |  |  |  |  |  |  |  |  |  |  |  |  |  |  | HAI titer [25]: > 2048 titer; HAI titer [26]: 64 titer; HAI titer [27]: 1024 titer
4 | negative control IgG (antibody) | < 1 | < 1 | < 1 | < 1 | < 1 | < 1 | < 1 | < 1 |  |  |  |  |  |  |  |  |  |  |  |  | HAI titer [25]: < 1 titer; HAI titer [28]: < 1 titer; HAI titer [29]: < 1 titer; HAI titer [26]: < 1 titer; HAI titer [27]: < 1 titer; HAI titer [23]: < 1 titer
5 | SAB-176 Lot 2 (PD2001010QR) (antibody) | 128 | 256 | 256 | 512 | 64 | 256 | 128 | 256 | 113 | 640 | 28 | 320 | 1280 | 320 | 160 | 40 | 320 | 160 | 160 | 640 | HAI titer ratio of SAB-176 to hIVIG [1]: 16 to 32 X; HAI titer of drug product [2]: 3580 titer; HAI titer ratio of SAB-176 to hIVIG [2]: 16 to 32 X; HAI titer ratio of SAB-176 to hIVIG [3]: 16 to 32 X; HAI titer [28]: 512 titer; HAI titer ratio of SAB-176 to hIVIG [28]: 16 to 32 X; HAI titer [29]: 256 titer; HAI titer ratio of SAB-176 to hIVIG [29]: 16 to 32 X; HAI titer of drug product [4]: 7170 titer; HAI titer ratio of SAB-176 to hIVIG [4]: 8 to 32 X; HAI titer ratio of SAB-176 to hIVIG [5]: 2 to 16 X; HAI titer of drug product [6]: 3580 titer; HAI titer ratio of SAB-176 to hIVIG [6]: 32 X; HAI titer ratio of SAB-176 to hIVIG [7]: 16 to 32 X; HAI titer ratio of SAB-176 to hIVIG [8]: 8 to 16 X
6 | SAB-176 Lot 6 (PD2204315QR) (antibody) |  |  |  |  |  |  |  |  | 160 | 1810 | 40 | 160 | 1280 | 320 | 640 | 320 | 1280 | 160 | 320 | 1280 | HAI titer of drug substance [29]: 7680 titer; HAI titer of drug substance [6]: 1920 titer; HAI titer of drug substance [7]: 3840 titer; HAI titer of drug substance [8]: 7680 titer
7 | SAB-176 Lot 3 (antibody) | 128 | 128 | 256 | 512 | 512 | 128 | 64 | 256 |  |  |  |  |  |  |  |  |  |  |  |  | HAI titer ratio of SAB-176 to hIVIG [1]: 16 to 32 X; HAI titer ratio of SAB-176 to hIVIG [2]: 8 to 16 X; HAI titer ratio of SAB-176 to hIVIG [3]: 16 to 32 X; HAI titer [28]: 512 titer; HAI titer ratio of SAB-176 to hIVIG [28]: 16 to 32 X; HAI titer [29]: 256 titer; HAI titer ratio of SAB-176 to hIVIG [29]: 16 to 32 X; HAI titer ratio of SAB-176 to hIVIG [4]: 8 to 32 X; HAI titer ratio of SAB-176 to hIVIG [5]: 16 to 128 X; HAI titer ratio of SAB-176 to hIVIG [6]: 16 X; HAI titer ratio of SAB-176 to hIVIG [7]: 8 to 16 X; HAI titer ratio of SAB-176 to hIVIG [8]: 8 to 16 X
8 | SAB-176 Lot 5 (PD2203294QR) (antibody) |  |  |  |  |  |  |  |  | 320 | 1810 | 40 | 160 | 1280 | 320 | 640 | 320 | 1280 | 80 | 320 | 1280 | HAI titer of drug substance [29]: 7680 titer; HAI titer of drug substance [6]: 1920 titer; HAI titer of drug substance [7]: 3840 titer; HAI titer of drug substance [8]: 3840 titer
9 | SAB-176 Lot 4 (PD2102092QR) (antibody) | 128 | 256 | 256 | 512 | 256 | 128 | 128 | 256 | 160 | 905 | 40 | 160 | 1280 | 640 | 320 | 320 | 320 | 160 | 160 | 640 | HAI titer ratio of SAB-176 to hIVIG [1]: 16 to 32 X; HAI titer ratio of SAB-176 to hIVIG [2]: 16 to 32 X; HAI titer ratio of SAB-176 to hIVIG [3]: 16 to 32 X; HAI titer [28]: 512 titer; HAI titer ratio of SAB-176 to hIVIG [28]: 16 to 32 X; HAI titer [29]: 256 titer; HAI titer ratio of SAB-176 to hIVIG [4]: 8 to 32 X; HAI titer ratio of SAB-176 to hIVIG [5]: 8 to 64 X; HAI titer of drug product [6]: 3840 titer; HAI titer ratio of SAB-176 to hIVIG [6]: 16 X; HAI titer of drug product [30]: 1920 titer; HAI titer of drug product [7]: 960 titer; HAI titer ratio of SAB-176 to hIVIG [7]: 16 to 32 X; HAI titer ratio of SAB-176 to hIVIG [8]: 8 to 16 X; HAI titer ratio of SAB-176 to hIVIG [22]: 16 to 32 X; HAI titer [23]: 256 titer; HAI titer ratio of SAB-176 to hIVIG [23]: 16 to 32 X; HAI titer ratio of SAB-176 to hIVIG [31]: 32 X
